The target in data set [1] is IL-1β in PC12 cell cultures. Description: cell-based or functional assay.
In data set [2] the target is IL-1 receptor on PC12 cells. Description: cell-based or functional assay.
The target of data set [3] is Recombinant human pro-IL-1β, P01584.
Sequence of Recombinant human pro-IL-1β, P01584 (P01584 whole entry, looked up): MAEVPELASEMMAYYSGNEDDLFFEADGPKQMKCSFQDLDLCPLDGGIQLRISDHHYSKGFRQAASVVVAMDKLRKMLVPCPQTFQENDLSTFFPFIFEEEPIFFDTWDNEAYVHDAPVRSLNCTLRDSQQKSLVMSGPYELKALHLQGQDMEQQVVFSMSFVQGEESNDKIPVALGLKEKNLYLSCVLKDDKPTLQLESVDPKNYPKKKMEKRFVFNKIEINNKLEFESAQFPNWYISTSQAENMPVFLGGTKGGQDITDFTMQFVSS

As for “Blocking monoclonal hamster anti-mouse IL-1β antibody (Genzyme)”, the suppression of death of V-ASOD1 treated (SOD1 deficient) PC12 cells; antibody concentration used in data set [1] came out at 30 µg/mL. “IL-1 receptor antagonist (rmIL-1Ra) (from UniProt P25085 27-178) (ligand)” yielded a suppression of death of V-ASOD1 treated (SOD1 deficient) PC12 cells; antagonist concentration used in data set [2] of 100 ng/mL.

B1: Recombinant human ICE (interleukin 1β converting enzyme) (protein)
chain: NPAMPTSSGSEGNVKLCSLEEAQRIWKQKSAEIYPIMDKSSRTRLALIICNEEFDSIPRRTGAEVDITGMTMLLQNLGYSVDVKKNLTASDMTTELEAFAHRPEHKTSDSTFLVFMSHGIREGICGKKHSEQVPDILQLNAIFNMLNTKNCPSLKDKPKVIIIQACRGDSPGVVWFKDSVGVSGNLSLPTTEEFEDDAIKKAHIEKDFIAFCSSTPDNVSWRHPTMGSVFIGRLIEHMQEYACSCDVEEIFRKVRFSFEQPDGRAQMPTTERVTLTRCFYLFPGH
As for B1, in data set [3], the “cleavage of pro-IL-1β by ICE in vitro (SDS-PAGE and immunoblot)” value is on record as “There is some cleavage in the presence of the inhibitor but much less than seen with ICE alone”.

The record behind these values is patent US6635738.
